Source: publication PMC5490261, “The structural and functional characterization of human RecQ4 reveals insights into its helicase mechanism”

What was measured:
[1] = target: T1, RecQ4 427-1116 (Homo sapiens, UniProt O94761 427-1116); assay: fluorescence polarization; apparent Kd; 20 mM HEPES pH 8.0, 10 mM NaCl, 5% glycerol, 1 mM MgCl2, 0.5 mM TCEP, 0.5 nM Cy3-ssDNA; temperature not stated; details: protein: recombinant; tags: Trx-His6 removed by 3C protease; label: 5' Cy3
T1 sequence: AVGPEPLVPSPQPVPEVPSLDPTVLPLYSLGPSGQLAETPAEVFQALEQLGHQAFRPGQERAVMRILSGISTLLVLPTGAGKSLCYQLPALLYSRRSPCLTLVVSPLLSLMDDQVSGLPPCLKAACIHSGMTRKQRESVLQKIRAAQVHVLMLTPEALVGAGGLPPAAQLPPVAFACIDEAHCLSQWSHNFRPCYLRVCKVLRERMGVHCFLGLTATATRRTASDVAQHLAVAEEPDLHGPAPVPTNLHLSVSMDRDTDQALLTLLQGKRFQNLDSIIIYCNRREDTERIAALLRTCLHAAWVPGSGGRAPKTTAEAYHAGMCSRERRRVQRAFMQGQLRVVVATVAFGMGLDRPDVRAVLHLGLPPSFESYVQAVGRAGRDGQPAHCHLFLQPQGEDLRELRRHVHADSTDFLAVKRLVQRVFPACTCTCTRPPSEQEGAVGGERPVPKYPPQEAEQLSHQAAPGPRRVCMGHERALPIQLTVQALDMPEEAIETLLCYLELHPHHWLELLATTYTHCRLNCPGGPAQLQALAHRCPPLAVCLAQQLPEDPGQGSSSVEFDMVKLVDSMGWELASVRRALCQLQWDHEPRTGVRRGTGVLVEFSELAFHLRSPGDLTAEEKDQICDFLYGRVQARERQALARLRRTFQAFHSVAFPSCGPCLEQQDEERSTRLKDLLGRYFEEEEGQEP

[2] = target: T2, RecQ4 427-1208 WT (Homo sapiens, UniProt O94761 427-1208); assay: as above; details: protein: recombinant; tags: Trx-His6 removed by 3C protease; label: 5' Cy3
T2 sequence: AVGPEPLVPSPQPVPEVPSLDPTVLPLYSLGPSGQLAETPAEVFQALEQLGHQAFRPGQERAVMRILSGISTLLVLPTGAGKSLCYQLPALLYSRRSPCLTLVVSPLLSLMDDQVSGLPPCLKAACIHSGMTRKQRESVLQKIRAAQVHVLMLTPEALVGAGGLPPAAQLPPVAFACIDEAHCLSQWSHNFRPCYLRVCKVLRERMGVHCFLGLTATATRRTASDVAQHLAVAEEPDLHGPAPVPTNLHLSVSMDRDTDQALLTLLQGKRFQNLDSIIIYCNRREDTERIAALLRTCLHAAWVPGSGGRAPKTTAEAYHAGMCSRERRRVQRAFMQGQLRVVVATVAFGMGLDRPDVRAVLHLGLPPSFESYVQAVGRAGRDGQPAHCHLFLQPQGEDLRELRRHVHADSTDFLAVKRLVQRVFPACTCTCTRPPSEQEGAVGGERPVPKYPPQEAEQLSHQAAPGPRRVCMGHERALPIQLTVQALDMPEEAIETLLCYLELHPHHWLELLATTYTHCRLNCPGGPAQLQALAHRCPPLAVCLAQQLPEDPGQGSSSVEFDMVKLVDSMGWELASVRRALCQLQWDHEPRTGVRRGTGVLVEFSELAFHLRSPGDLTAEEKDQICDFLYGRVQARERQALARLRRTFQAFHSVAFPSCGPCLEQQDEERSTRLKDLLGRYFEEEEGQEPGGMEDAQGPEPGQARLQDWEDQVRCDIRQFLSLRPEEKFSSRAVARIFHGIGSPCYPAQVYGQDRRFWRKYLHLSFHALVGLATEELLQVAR

Work on CCATTCCACCCTCTATTTTTTTTTTTTTTT (ssDNA) [T3-Cy3] yielded a Kd [1] of 18.1 ± 0.8 nM and a Kd [2] of 4.6 ± 0.4 nM.
